# From patent US20240390422A1 (QUELL THERAPEUTICS, published 2024)
# T1: Biotinylated Human TREM2 Protein,His,Avitag (TR2-H82E7, ACRObiosystems) (human, UniProt Q9NZC2 19-174, biotinylated (Avitag))
# T1 construct: Bought protein; also called huTREM2,Biotin,His,Avitag; Biotinylated human TREM2 protein with a streptavidin tag; not shown: His tag and Avitag
# T1 sequence (looked up): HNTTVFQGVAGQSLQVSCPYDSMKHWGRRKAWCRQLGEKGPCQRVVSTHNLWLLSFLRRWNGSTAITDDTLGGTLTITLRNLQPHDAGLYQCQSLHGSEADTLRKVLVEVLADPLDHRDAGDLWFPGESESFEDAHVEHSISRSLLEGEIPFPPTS
# Target: T1, Biotinylated Human TREM2 …
# Test: flow cytometry: CAR-transduced Jurkat NFAT cells stained with Biotinylated Human TREM2 Protein and Streptavidin APC; also sorted with the protein and streptavidin beads
# From the text: Constructs 3, 7, 8 and 10 are all constructs of the present invention, which comprise a CAR comprising a TREM2 scFv. Non-transduced cells (mock) and transduced cells were collected and stained for flow cytometry using Biotinylated Human TREM2 Protein (TR2-H82E7 ACRObiosystems) and Streptavidin APC as a secondary antibody. Cells were sorted using Streptavidin magnetic beads, columns (miltenyi) and Biotinylated Human TREM2 Protein (TR2-H82E7 ACRObiosystems).
# On day 4 after transduction, Jurkat NFAT cells were stained for surface expression of the anti-TREM2 CARs using Biotinylated Human TREM2 Protein (TR2-H82E7 ACRObiosystems) and Streptavidin-APC as a secondary antibody. On day 7, CAR expressing cells were selected using Streptavidin magnetic beads (Streptavidin MicroBeads, 130-048-101, Miltenyi), columns (Miltenyi) and Biotinylated Human TREM2 Protein (TR2-H82E7 ACRObiosystems) and then used for subsequent activation assays.
row,Binder,binding result
1,"construct 7 (anti-TREM2 CAR comprising a TREM2 scFv) (other, Chimeric antigen receptor with an anti-TREM2 scFv, expressed on the surface of Jurkat NFAT cells or murine Tregs after retroviral transduction; the construct also encodes GFP) QVQLQQSGPGLVKPSQTLSLTCAISGDSVSSSSAAWNWIRQSPSRGLEWLGHIGYRSKWYNEYAVSVKSRITINPDTSKNQFSLQLNSVTPEDTAVYYCARGMYGSVPYKEGYYFDIWGQGTLVTVSSGGGGSGGGGSGGGGSDIQMTQSPSSLSASVGDRVTITCRASQGISSDLNWYQQKPGKAPKLLIYAASNLQSGVPSRFSGSGSGTDFTLTISSLQPEDFATYYCQQYTDESMTFGQGTKVEIKLRVFSSVVPVLQKVNSTTTKPVLRTPSPVHPTGTSQPQRPEDCRPRGSVKGTGLDFACDIYIWAPLAGICVALLLSLIITLICYHRQLWTNSRRNRLLQSDYMNMTPRRPGLTRKPYQPYAPARDFAAYRPRAKFSRSAETAANLQDPNQLYNELNLGRREEYDVLEKKRARDPEMGGKQQRRRNPQEGVYNALQKDKMAEAYSEIGTKGERRRGKGHDGLYQGLSTATKDTYDALHMQTLAPR",binds
2,"construct 10 (anti-TREM2 CAR comprising a TREM2 scFv) (other, Chimeric antigen receptor with an anti-TREM2 scFv, expressed on the surface of Jurkat NFAT cells or murine Tregs after retroviral transduction; the construct also encodes GFP) EVQLLESGGGLVQPGGSLRLSCAASGFTFSNYYMAWVRQAPGKGLEWVSSLTNSGGSTYYADSVKGRFTISRDNSKNTLYLQMNSLRAEDTAVYYCTREWAGSGYFDYWGQGTLVTVSSGGGGSGGGGSGGGGSDIQMTQSPSSLSASVGDRVTMTCKASQNVGNNLAWYQQKPGKAPKLLLYYTSNRFTGVPSRFSGSGSGTDFTLTISSVQPEDFATYYCQRIYNSPWTFGQGTKLELKLRVFSSVVPVLQKVNSTTTKPVLRTPSPVHPTGTSQPQRPEDCRPRGSVKGTGLDFACDIYIWAPLAGICVALLLSLIITLICYHRQLWTNSRRNRLLQSDYMNMTPRRPGLTRKPYQPYAPARDFAAYRPRAKFSRSAETAANLQDPNQLYNELNLGRREEYDVLEKKRARDPEMGGKQQRRRNPQEGVYNALQKDKMAEAYSEIGTKGERRRGKGHDGLYQGLSTATKDTYDALHMQTLAPR",binds
3,"construct 8 (anti-TREM2 CAR comprising a TREM2 scFv) (other, the construct also encodes GFP) QVQLVQSGAEVKKPGASVKVSCKASGYTFTGYHMSWVRQAPGQGLEWMGVINPVSGNTVYAQKFQGRVTMTRDTSISTAYMELSRLRSEDTAVYYCARIPSYTYAFDYWGQGTLVTVSSGGGGSGGGGSGGGGSDIQMTQSPSSLSASVGDRVTITCRASQDISNYLAWYQQKPGKAPKLLIYRASSLQSGVPSRFSGSGSGTDFTLTISSLQPEDFATYYCQQHGHSPTTFGQGTKVEIKLRVFSSVVPVLQKVNSTTTKPVLRTPSPVHPTGTSQPQRPEDCRPRGSVKGTGLDFACDIYIWAPLAGICVALLLSLIITLICYHRQLWTNSRRNRLLQSDYMNMTPRRPGLTRKPYQPYAPARDFAAYRPRAKFSRSAETAANLQDPNQLYNELNLGRREEYDVLEKKRARDPEMGGKQQRRRNPQEGVYNALQKDKMAEAYSEIGTKGERRRGKGHDGLYQGLSTATKDTYDALHMQTLAPR",binds
4,"construct 3 (anti-TREM2 CAR comprising a TREM2 scFv) (other, Chimeric antigen receptor with an anti-TREM2 scFv, expressed on the surface of Jurkat NFAT cells or murine Tregs after retroviral transduction; the construct also encodes GFP) EVQLVQSGAEVKKPGESLKISCKGSGYTFTSYWIGWVRQMPGKGLEWMGIIYPGDSDTRYSPSFQGQVTISVDKSSSTAYLQWSSLKASDTAIYYCTRQAIAVTGLGGFDPWGQGTLVTVSSGGGGSGGGGSGGGGSEIVLTQSPGTLSLSPGERATLSCRASQSVSSSYLAWYQQKPGQAPRLLIYGASSRATGIPDRFSGSGSGTDFTLTISRLEPEDFALYYCQQYDTSPFTFGPGTKVDIKLRVFSSVVPVLQKVNSTTTKPVLRTPSPVHPTGTSQPQRPEDCRPRGSVKGTGLDFACDIYIWAPLAGICVALLLSLIITLICYHRQLWTNSRRNRLLQSDYMNMTPRRPGLTRKPYQPYAPARDFAAYRPRAKFSRSAETAANLQDPNQLYNELNLGRREEYDVLEKKRARDPEMGGKQQRRRNPQEGVYNALQKDKMAEAYSEIGTKGERRRGKGHDGLYQGLSTATKDTYDALHMQTLAPR",binds
